Measured values published in paper PMC8167298, “Structural Investigations of Human A2M Identify a Hollow Native Conformation That Underlies Its Distinctive Protease-Trapping Mechanism” (Molecular & Cellular Proteomics : MCP, 2021).

Legend:
[1] = biological target: the molecule itself; experiment: nonreducing SDS-PAGE; nonreducing SDS-PAGE on 5 to 15% gradient gels; shows disulfide-linked oligomers; DSSO-cross-linked A2M-MA defines the dimer and tetramer bands
[2] = biological target: the molecule itself; experiment: negative stain electron microscopy; A2M at 78 μg/ml on carbon-coated copper grids, 2% w/v uranyl formate; 2D classes and 3D refinement with D2 symmetry imposed, 24 Å map
[3] = biological target: the molecule itself; experiment: SEC; Sephacryl S-300 HR column in HBS, samples after DSSO cross-linking

Protein	stoichiometry N [1]	stoichiometry N [2]	stoichiometry N [3]
Human α2-macroglobulin (A2M), native conformation, plasma-purified (natural protein, UniProt P01023 24-1474, looked up, intact thiol ester between the cysteine and glutamine of the CGEQ motif; N-glycans; intersubunit Cys278/Cys431 disulfides in each disulfide-bridged dimer, α2-macroglobulin, human, from plasma; original N-terminus at position 24; Homotetramer of 720 kDa, a dimer of disulfide-bridged dimers; In the cross-linking, SEC and native PAGE rows the protein carried DSSO cross-links; SAXS was also measured on deglycosylated A2M; also called native A2M; plasma A2M; source: purified from plasma from a healthy volunteer, never frozen) SVSGKPQYMVLVPSLLHTETTEKGCVLLSYLNETVTVSASLESVRGNRSLFTDLEAENDVLHCVAFAVPKSSSNEEVMFLTVQVKGPTQEFKKRTTVMVKNEDSLVFVQTDKSIYKPGQTVKFRVVSMDENFHPLNELIPLVYIQDPKGNRIAQWQSFQLEGGLKQFSFPLSSEPFQGSYKVVVQKKSGGRTEHPFTVEEFVLPKFEVQVTVPKIITILEEEMNVSVCGLYTYGKPVPGHVTVSICRKYSDASDCHGEDSQAFCEKFSGQLNSHGCFYQQVKTKVFQLKRKEYEMKLHTEAQIQEEGTVVELTGRQSSEITRTITKLSFVKVDSHFRQGIPFFGQVRLVDGKGVPIPNKVIFIRGNEANYYSNATTDEHGLVQFSINTTNVMGTSLTVRVNYKDRSPCYGYQWVSEEHEEAHHTAYLVFSPSKSFVHLEPMSHELPCGHTQTVQAHYILNGGTLLGLKKLSFYYLIMAKGGIVRTGTHGLLVKQEDMKGHFSISIPVKSDIAPVARLLIYAVLPTGDVIGDSAKYDVENCLANKVDLSFSPSQSLPASHAHLRVTAAPQSVCALRAVDQSVLLMKPDAELSASSVYNLLPEKDLTGFPGPLNDQDNEDCINRHNVYINGITYTPVSSTNEKDMYSFLEDMGLKAFTNSKIRKPKMCPQLQQYEMHGPEGLRVGFYESDVMGRGHARLVHVEEPHTETVRKYFPETWIWDLVVVNSAGVAEVGVTVPDTITEWKAGAFCLSEDAGLGISSTASLRAFQPFFVELTMPYSVIRGEAFTLKATVLNYLPKCIRVSVQLEASPAFLAVPVEKEQAPHCICANGRQTVSWAVTPKSLGNVNFTVSAEALESQELCGTEVPSVPEHGRKDTVIKPLLVEPEGLEKETTFNSLLCPSGGEVSEELSLKLPPNVVEESARASVSVLGDILGSAMQNTQNLLQMPYGCGEQNMVLFAPNIYVLDYLNETQQLTPEIKSKAIGYLNTGYQRQLNYKHYDGSYSTFGERYGRNQGNTWLTAFVLKTFAQARAYIFIDEAHITQALIWLSQRQKDNGCFRSSGSLLNNAIKGGVEDEVTLSAYITIALLEIPLTVTHPVVRNALFCLESAWKTAQEGDHGSHVYTKALLAYAFALAGNQDKRKEVLKSLNEEAVKKDNSVHWERPQKPKAPVGHFYEPQAPSAEVEMTSYVLLAYLTAQPAPTSEDLTSATNIVKWITKQQNAQGGFSSTQDTVVALHALSKYGAATFTRTGKAAQVTIQSSGTFSSKFQVDNNNRLLLQQVSLPELPGEYSMKVTGEGCVYLQTSLKYNILPEKEEFPFALGVQTLPQTCDEPKAHTSFQISLSVSYTGSRSASNMAIVDVKMVSGFIPLKPTVKMLERSNHVSRTEVSSNHVLIYLDKVSNQTLSLFFTVLQDVPVRDLKPAIVKVYDYYETDEFAIAEYNAPCSKDLGNA	2	4	–
A2M^LNK/LNK, recombinant A2M with the Thr654Cys and Thr661Cys mutations (natural protein, human, UniProt P01023 24-1474, looked up, intersubunit disulfide between Cys654 and Cys661 of opposite subunits, α2-macroglobulin, human, recombinant; two cysteines introduced in the LNK region; The protein is secreted into the culture supernatant; also called A2M^LNK/LNK (T654C T661C); source: HEK293 Freestyle cells, transiently transfected, purified from the supernatant by the protocol used for plasma A2M) SVSGKPQYMVLVPSLLHTETTEKGCVLLSYLNETVTVSASLESVRGNRSLFTDLEAENDVLHCVAFAVPKSSSNEEVMFLTVQVKGPTQEFKKRTTVMVKNEDSLVFVQTDKSIYKPGQTVKFRVVSMDENFHPLNELIPLVYIQDPKGNRIAQWQSFQLEGGLKQFSFPLSSEPFQGSYKVVVQKKSGGRTEHPFTVEEFVLPKFEVQVTVPKIITILEEEMNVSVCGLYTYGKPVPGHVTVSICRKYSDASDCHGEDSQAFCEKFSGQLNSHGCFYQQVKTKVFQLKRKEYEMKLHTEAQIQEEGTVVELTGRQSSEITRTITKLSFVKVDSHFRQGIPFFGQVRLVDGKGVPIPNKVIFIRGNEANYYSNATTDEHGLVQFSINTTNVMGTSLTVRVNYKDRSPCYGYQWVSEEHEEAHHTAYLVFSPSKSFVHLEPMSHELPCGHTQTVQAHYILNGGTLLGLKKLSFYYLIMAKGGIVRTGTHGLLVKQEDMKGHFSISIPVKSDIAPVARLLIYAVLPTGDVIGDSAKYDVENCLANKVDLSFSPSQSLPASHAHLRVTAAPQSVCALRAVDQSVLLMKPDAELSASSVYNLLPEKDLTGFPGPLNDQDNEDCINRHNVYINGICYTPVSSCNEKDMYSFLEDMGLKAFTNSKIRKPKMCPQLQQYEMHGPEGLRVGFYESDVMGRGHARLVHVEEPHTETVRKYFPETWIWDLVVVNSAGVAEVGVTVPDTITEWKAGAFCLSEDAGLGISSTASLRAFQPFFVELTMPYSVIRGEAFTLKATVLNYLPKCIRVSVQLEASPAFLAVPVEKEQAPHCICANGRQTVSWAVTPKSLGNVNFTVSAEALESQELCGTEVPSVPEHGRKDTVIKPLLVEPEGLEKETTFNSLLCPSGGEVSEELSLKLPPNVVEESARASVSVLGDILGSAMQNTQNLLQMPYGCGEQNMVLFAPNIYVLDYLNETQQLTPEIKSKAIGYLNTGYQRQLNYKHYDGSYSTFGERYGRNQGNTWLTAFVLKTFAQARAYIFIDEAHITQALIWLSQRQKDNGCFRSSGSLLNNAIKGGVEDEVTLSAYITIALLEIPLTVTHPVVRNALFCLESAWKTAQEGDHGSHVYTKALLAYAFALAGNQDKRKEVLKSLNEEAVKKDNSVHWERPQKPKAPVGHFYEPQAPSAEVEMTSYVLLAYLTAQPAPTSEDLTSATNIVKWITKQQNAQGGFSSTQDTVVALHALSKYGAATFTRTGKAAQVTIQSSGTFSSKFQVDNNNRLLLQQVSLPELPGEYSMKVTGEGCVYLQTSLKYNILPEKEEFPFALGVQTLPQTCDEPKAHTSFQISLSVSYTGSRSASNMAIVDVKMVSGFIPLKPTVKMLERSNHVSRTEVSSNHVLIYLDKVSNQTLSLFFTVLQDVPVRDLKPAIVKVYDYYETDEFAIAEYNAPCSKDLGNA	4	–	–
Recombinant wild-type A2M (natural protein, human, UniProt P01023 24-1474, looked up, α2-macroglobulin, human, recombinant wild type; source: HEK293 Freestyle cells, transiently transfected, purified from the supernatant by the protocol used for plasma A2M) SVSGKPQYMVLVPSLLHTETTEKGCVLLSYLNETVTVSASLESVRGNRSLFTDLEAENDVLHCVAFAVPKSSSNEEVMFLTVQVKGPTQEFKKRTTVMVKNEDSLVFVQTDKSIYKPGQTVKFRVVSMDENFHPLNELIPLVYIQDPKGNRIAQWQSFQLEGGLKQFSFPLSSEPFQGSYKVVVQKKSGGRTEHPFTVEEFVLPKFEVQVTVPKIITILEEEMNVSVCGLYTYGKPVPGHVTVSICRKYSDASDCHGEDSQAFCEKFSGQLNSHGCFYQQVKTKVFQLKRKEYEMKLHTEAQIQEEGTVVELTGRQSSEITRTITKLSFVKVDSHFRQGIPFFGQVRLVDGKGVPIPNKVIFIRGNEANYYSNATTDEHGLVQFSINTTNVMGTSLTVRVNYKDRSPCYGYQWVSEEHEEAHHTAYLVFSPSKSFVHLEPMSHELPCGHTQTVQAHYILNGGTLLGLKKLSFYYLIMAKGGIVRTGTHGLLVKQEDMKGHFSISIPVKSDIAPVARLLIYAVLPTGDVIGDSAKYDVENCLANKVDLSFSPSQSLPASHAHLRVTAAPQSVCALRAVDQSVLLMKPDAELSASSVYNLLPEKDLTGFPGPLNDQDNEDCINRHNVYINGITYTPVSSTNEKDMYSFLEDMGLKAFTNSKIRKPKMCPQLQQYEMHGPEGLRVGFYESDVMGRGHARLVHVEEPHTETVRKYFPETWIWDLVVVNSAGVAEVGVTVPDTITEWKAGAFCLSEDAGLGISSTASLRAFQPFFVELTMPYSVIRGEAFTLKATVLNYLPKCIRVSVQLEASPAFLAVPVEKEQAPHCICANGRQTVSWAVTPKSLGNVNFTVSAEALESQELCGTEVPSVPEHGRKDTVIKPLLVEPEGLEKETTFNSLLCPSGGEVSEELSLKLPPNVVEESARASVSVLGDILGSAMQNTQNLLQMPYGCGEQNMVLFAPNIYVLDYLNETQQLTPEIKSKAIGYLNTGYQRQLNYKHYDGSYSTFGERYGRNQGNTWLTAFVLKTFAQARAYIFIDEAHITQALIWLSQRQKDNGCFRSSGSLLNNAIKGGVEDEVTLSAYITIALLEIPLTVTHPVVRNALFCLESAWKTAQEGDHGSHVYTKALLAYAFALAGNQDKRKEVLKSLNEEAVKKDNSVHWERPQKPKAPVGHFYEPQAPSAEVEMTSYVLLAYLTAQPAPTSEDLTSATNIVKWITKQQNAQGGFSSTQDTVVALHALSKYGAATFTRTGKAAQVTIQSSGTFSSKFQVDNNNRLLLQQVSLPELPGEYSMKVTGEGCVYLQTSLKYNILPEKEEFPFALGVQTLPQTCDEPKAHTSFQISLSVSYTGSRSASNMAIVDVKMVSGFIPLKPTVKMLERSNHVSRTEVSSNHVLIYLDKVSNQTLSLFFTVLQDVPVRDLKPAIVKVYDYYETDEFAIAEYNAPCSKDLGNA	2	–	–
A2M^3K, recombinant A2M with the Arg704Lys, Arg715Lys and Arg719Lys mutations (natural protein, human, UniProt P01023 24-1474, looked up, α2-macroglobulin, human, recombinant; the three bait region arginines replaced with lysines; The protein is secreted into the culture supernatant; also called A2M^3K (R704K R715K R719K); source: HEK293 Freestyle cells, transiently transfected, purified from the supernatant by the protocol used for plasma A2M) SVSGKPQYMVLVPSLLHTETTEKGCVLLSYLNETVTVSASLESVRGNRSLFTDLEAENDVLHCVAFAVPKSSSNEEVMFLTVQVKGPTQEFKKRTTVMVKNEDSLVFVQTDKSIYKPGQTVKFRVVSMDENFHPLNELIPLVYIQDPKGNRIAQWQSFQLEGGLKQFSFPLSSEPFQGSYKVVVQKKSGGRTEHPFTVEEFVLPKFEVQVTVPKIITILEEEMNVSVCGLYTYGKPVPGHVTVSICRKYSDASDCHGEDSQAFCEKFSGQLNSHGCFYQQVKTKVFQLKRKEYEMKLHTEAQIQEEGTVVELTGRQSSEITRTITKLSFVKVDSHFRQGIPFFGQVRLVDGKGVPIPNKVIFIRGNEANYYSNATTDEHGLVQFSINTTNVMGTSLTVRVNYKDRSPCYGYQWVSEEHEEAHHTAYLVFSPSKSFVHLEPMSHELPCGHTQTVQAHYILNGGTLLGLKKLSFYYLIMAKGGIVRTGTHGLLVKQEDMKGHFSISIPVKSDIAPVARLLIYAVLPTGDVIGDSAKYDVENCLANKVDLSFSPSQSLPASHAHLRVTAAPQSVCALRAVDQSVLLMKPDAELSASSVYNLLPEKDLTGFPGPLNDQDNEDCINRHNVYINGITYTPVSSTNEKDMYSFLEDMGLKAFTNSKIRKPKMCPQLQQYEMHGPEGLKVGFYESDVMGKGHAKLVHVEEPHTETVRKYFPETWIWDLVVVNSAGVAEVGVTVPDTITEWKAGAFCLSEDAGLGISSTASLRAFQPFFVELTMPYSVIRGEAFTLKATVLNYLPKCIRVSVQLEASPAFLAVPVEKEQAPHCICANGRQTVSWAVTPKSLGNVNFTVSAEALESQELCGTEVPSVPEHGRKDTVIKPLLVEPEGLEKETTFNSLLCPSGGEVSEELSLKLPPNVVEESARASVSVLGDILGSAMQNTQNLLQMPYGCGEQNMVLFAPNIYVLDYLNETQQLTPEIKSKAIGYLNTGYQRQLNYKHYDGSYSTFGERYGRNQGNTWLTAFVLKTFAQARAYIFIDEAHITQALIWLSQRQKDNGCFRSSGSLLNNAIKGGVEDEVTLSAYITIALLEIPLTVTHPVVRNALFCLESAWKTAQEGDHGSHVYTKALLAYAFALAGNQDKRKEVLKSLNEEAVKKDNSVHWERPQKPKAPVGHFYEPQAPSAEVEMTSYVLLAYLTAQPAPTSEDLTSATNIVKWITKQQNAQGGFSSTQDTVVALHALSKYGAATFTRTGKAAQVTIQSSGTFSSKFQVDNNNRLLLQQVSLPELPGEYSMKVTGEGCVYLQTSLKYNILPEKEEFPFALGVQTLPQTCDEPKAHTSFQISLSVSYTGSRSASNMAIVDVKMVSGFIPLKPTVKMLERSNHVSRTEVSSNHVLIYLDKVSNQTLSLFFTVLQDVPVRDLKPAIVKVYDYYETDEFAIAEYNAPCSKDLGNA	–	–	4
